Reference: paper PMC4005678, “Structural basis for Klf4 recognition of methylated DNA”

Target: Klf4 ZnF1-3 DNA-binding domain (mouse, UniProt Q60793 396-483)
Experiment: X-ray crystallography (1.85 A); 3 Zn2+; FP: 20 mM Tris-HCl pH 7.5, 150 mM NaCl, 5% (v/v) glycerol, 0.5 mM TCEP, ~22 C; probe 10 nM (WT) or 1 nM (E446A)
Conditions: protein: recombinant; tags: GST tag removed; N-terminal GPLGS left; blunt

Klf4 ZnF1-3 DNA-binding domain, sequence (Q60793 396-483): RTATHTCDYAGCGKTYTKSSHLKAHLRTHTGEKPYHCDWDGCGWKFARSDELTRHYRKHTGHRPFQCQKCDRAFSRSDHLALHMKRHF

B1: crystal 10-mer M/M (dsDNA)
DNA 1: GAGGCGTGGC
DNA 2: GCCACGCCTC
modifications: 5mC at position 5 of strand 1 and position 5 of strand 2
binding result: binds
